Reference: US20220031840A1, “Method of Treatment” (HaemaLogix Pty Ltd, priority 2018, published 2022)

Legend:
[1] = Phase 1 safety and tolerability of single IV infusion of kappamab (adverse events, laboratory, ECG)
Experimental: Patients on maintenance therapy (thalidomide or lenalidomide) were also eligible for inclusion. Patients were excluded from the study if their serum κFLC was greater than 250 mg/L.
The pharmacodynamics of serum κFLC was also assessed. Drug-target modulation of cell signalling pathways was determined by measuring pro-inflammatory and anti-inflammatory cytokines, chemokines, and growth factors in patient serum at specific time intervals.
After providing HREC-approved consent, patients were screened and assessed for study eligibility.
Within each dose cohort only 1 patient per week was to be treated. […] Premedication was not mandated, however, paracetamol (acetaminophen), corticosteroids, and antihistamines were allowed for the treatment of infusion reactions.
Evaluation of safety and tolerability during treatment included vital signs, physical examination, electrocardiogram (ECG), haematology assessments, clinical chemistry, C-reactive protein, β2-microglobulin, immunoglobulin quantification, urinalysis, creatinine clearance, collection of adverse events (AEs), and drug-induced toxicity. All AEs were graded using the Cancer Therapy Evaluation Program Common Terminology Criteria for Adverse Events, version 3.0.

[2] = Pharmacokinetics: serum kappamab by ELISA; assay type: in vivo, human
Source text: The PK analysis was based on measurement of serum kappamab using an ELISA that was validated according to recommended guidelines. Briefly, immobilized human kappa Bence Jones protein (Bethyl, Sigma, USA) was used to capture kappamab. The captured kappamab was then detected using an AP-conjugated anti-human IgG (gamma chain specific; Sigma, Cat. No. H4522) followed by colour development with the AP substrate.

[3] = Related AEs: Eructation, Overall (N = 12)
[4] = Related AEs: Flushing, 10 mg/kg (N = 3)
[5] = Related AEs: Flushing, Overall (N = 12)
[6] = Related AEs: Gastrointestinal disorders, Total, 10 mg/kg (N = 3)
[7] = Related AEs: Gastrointestinal disorders, Total, Overall (N = 12)
[8] = Related AEs: Musculoskeletal and connective tissue disorders, Total, 10 mg/kg (N = 3)
[9] = Related AEs: Musculoskeletal and connective tissue disorders, Total, Overall (N = 12)
[10] = Related AEs: Nausea, 10 mg/kg (N = 3)
[11] = Related AEs: Nausea, Overall (N = 12)
[12] = Related AEs: Pain in extremity, 10 mg/kg (N = 3)
[13] = Related AEs: Pain in extremity, Overall (N = 12)
[14] = Related AEs: Respiratory, thoracic & mediastinal disorders, Total, 10 mg/kg (N = 3)
[15] = Related AEs: Respiratory, thoracic & mediastinal disorders, Total, Overall (N = 12)
[16] = Related AEs: Vascular disorders, Total, 10 mg/kg (N = 3)
[17] = Related AEs: Vascular disorders, Total, Overall (N = 12)

kappamab: humanized form of K121 anti-KMA antibody; VH SEQ ID NO: 1, VL SEQ ID NO: 2
Number of patients with AEs (%) [1, 3]: 1 (8.3%) | number of AEs [1, 3]: 1 | Number of patients with AEs (%) [1, 4]: 1 (33%) | number of AEs [1, 4]: 1 | Number of patients with AEs (%) [1, 5]: 1 (8.3%) | number of AEs [1, 5]: 1 | Number of patients with AEs (%) [1, 6]: 2 (67%) | number of AEs [1, 6]: 3 | Number of patients with AEs (%) [1, 7]: 2 (17%) | number of AEs [1, 7]: 3 | Number of patients with AEs (%) [1, 8]: 1 (33%) | number of AEs [1, 8]: 1 | Number of patients with AEs (%) [1, 9]: 1 (8.3%) | number of AEs [1, 9]: 1 | Number of patients with AEs (%) [1, 10]: 2 (67%) | number of AEs [1, 10]: 2 | Number of patients with AEs (%) [1, 11]: 2 (8.3%) | number of AEs [1, 11]: 2 | Number of patients with AEs (%) [1, 12]: 1 (33%) | number of AEs [1, 12]: 1 | Number of patients with AEs (%) [1, 13]: 1 (8.3%) | number of AEs [1, 13]: 1 | Number of patients with AEs (%) [1, 14]: 1 (33%) | number of AEs [1, 14]: 1 | Number of patients with AEs (%) [1, 15]: 1 (8.3%) | number of AEs [1, 15]: 1 | Number of patients with AEs (%) [1, 16]: 1 (33%) | number of AEs [1, 16]: 1 | Number of patients with AEs (%) [1, 17]: 1 (8.3%) | number of AEs [1, 17]: 1 | Time to resolution of infusion reaction symptoms ([1]; after infusion was stopped, without treatment): ≤ 30 min | Immune complex formation or serum sickness ([1]; any patient): no evidence of immune complex formation or serum sickness | Deaths or other serious AEs ([1]; during the study): no deaths or other serious AEs | Serum immunoglobulin levels, clinical chemistry, haematology, urinalysis ([1]; during the study): no dose-related trends | ECG QTc intervals ([1]; in vivo): no prolongation of QTc intervals | ECOG performance status scores ([1]; in vivo): no effect | Lactate dehydrogenase levels or vital signs ([1]; in vivo): No changes from baseline | Serum C-reactive protein levels ([1]; in vivo): no apparent dose-related trend | Infusion reaction ([1]; one patient, 10 mg/kg, flushing, dyspnea, nausea after start of infusion): grade 1 infusion reaction | Maximum tolerated dose ([1]; patients treated up to 10 mg/kg): No maximum tolerated dose of kappamab was defined | Kidney function ([1]; serum blood urea nitrogen, serum creatinine, creatinine clearance): no drug-related effects on kidney function | Cmax ([2]; 1.0 mg/kg single IV dose, N = 3, geometric mean): 20600 ng/mL | Manner of decline of serum kappamab after Cmax ([2]; human, in vivo): biphasic manner | Serum concentration at Day 30 relative to Cmax ([2]; human, in vivo): 0.3-10 % of Cmax | Volume of distribution (Vz), description ([2]; human, in vivo): low and similar across ascending doses | AUC0-tz ([2]; human, in vivo, iv, 0.3 mg/kg): 803 µg·h/mL | AUC0-tz normalized for dose (mg/kg) ([2]; human, in vivo, iv, 0.3 mg/kg): 2678 µg·h/mL | AUC0-∞ ([2]; human, in vivo, iv, 0.3 mg/kg): 901 µg·h/mL | AUC0-∞ normalized for dose (mg/kg) ([2]; human, in vivo, iv, 0.3 mg/kg): 3003 µg·h/mL | CL (apparent total body clearance) ([2]; human, in vivo, iv, 0.3 mg/kg): 7.99 mL/day/kg | Cmax ([2]; human, in vivo, iv, 0.3 mg/kg): 5440 ng/mL | Vz (apparent volume of distribution during terminal phase) ([2]; human, in vivo, iv, 0.3 mg/kg): 0.114 L/kg | t1/2 (apparent elimination half-life) ([2]; human, in vivo, iv, 0.3 mg/kg): 237 h | tmax ([2]; human, in vivo, iv, 0.3 mg/kg): 3.00 h | AUC0-tz ([2]; human, in vivo, iv, 1 mg/kg): 3006 µg·h/mL | AUC0-tz normalized for dose (mg/kg) ([2]; human, in vivo, iv, 1 mg/kg): 3006 µg·h/mL | AUC0-∞ normalized for dose (mg/kg) ([2]; human, in vivo, iv, 1 mg/kg): 3079 µg·h/mL | CL (apparent total body clearance) ([2]; human, in vivo, iv, 1 mg/kg): 7.79 mL/day/kg | Vz (apparent volume of distribution during terminal phase) ([2]; human, in vivo, iv, 1 mg/kg): 0.0946 L/kg | t1/2 (apparent elimination half-life) ([2]; human, in vivo, iv, 1 mg/kg): 202 h | tmax ([2]; human, in vivo, iv, 1 mg/kg): 4.00 h | AUC0-tz ([2]; human, in vivo, iv, 3 mg/kg): 6864 µg·h/mL | AUC0-tz normalized for dose (mg/kg) ([2]; human, in vivo, iv, 3 mg/kg): 2288 µg·h/mL | AUC0-∞ ([2]; human, in vivo, iv, 3 mg/kg): 6927 µg·h/mL | AUC0-∞ normalized for dose (mg/kg) ([2]; human, in vivo, iv, 3 mg/kg): 2309 µg·h/mL | CL (apparent total body clearance) ([2]; human, in vivo, iv, 3 mg/kg): 10.4 mL/day/kg | Cmax ([2]; human, in vivo, iv, 3 mg/kg): 69900 ng/mL | Vz (apparent volume of distribution during terminal phase) ([2]; human, in vivo, iv, 3 mg/kg): 0.120 L/kg | t1/2 (apparent elimination half-life) ([2]; human, in vivo, iv, 3 mg/kg): 191 h | tmax ([2]; human, in vivo, iv, 3 mg/kg): 2.00 h | AUC0-tz ([2]; human, in vivo, iv, 10 mg/kg): 22994 µg·h/mL | AUC0-tz normalized for dose (mg/kg) ([2]; human, in vivo, iv, 10 mg/kg): 2299 µg·h/mL | AUC0-∞ ([2]; human, in vivo, iv, 10 mg/kg): 23227 µg·h/mL | AUC0-∞ normalized for dose (mg/kg) ([2]; human, in vivo, iv, 10 mg/kg): 2323 µg·h/mL | CL (apparent total body clearance) ([2]; human, in vivo, iv, 10 mg/kg): 10.3 mL/day/kg | Cmax ([2]; human, in vivo, iv, 10 mg/kg): 219000 ng/mL | Vz (apparent volume of distribution during terminal phase) ([2]; human, in vivo, iv, 10 mg/kg): 0.0770 L/kg | t1/2 (apparent elimination half-life) ([2]; human, in vivo, iv, 10 mg/kg): 124 h | tmax ([2]; human, in vivo, iv, 10 mg/kg): 4.00 h | Detectability of kappamab in serum ([2]; in vivo): could be detected at all dose levels (up to Day 30) | Start of the apparent terminal elimination phase ([2]; in vivo, iv): ~7 days | Time at which maximum serum concentrations were achieved ([2]; in vivo, iv): 2 to 4 h
